The chains are these.
B1: Eukaryotic translation initiation factor 4E1 (Drosophila melanogaster (Fruit fly)), P48598 (parent)
chain: MQSDFHRMKNFANPKSMFKTSAPSTEQGRPEPPTSAAAPAEAKDVKPKEDPQETGEPAGNTATTTAPAGDDAVRTEHLYKHPLMNVWTLWYLENDRSKSWEDMQNEITSFDTVEDFWSLYNHIKPPSEIKLGSDYSLFKKNIRPMWEDAANKQGGRWVITLNKSSKTDLDNLWLDVLLCLIGEAFDHSDQICGAVINIRGKSNKISIWTADGNNEEAALEIGHKLRDALRLGRNNSLQYQLHKDTMVKQGSNVKSIYTL
partner: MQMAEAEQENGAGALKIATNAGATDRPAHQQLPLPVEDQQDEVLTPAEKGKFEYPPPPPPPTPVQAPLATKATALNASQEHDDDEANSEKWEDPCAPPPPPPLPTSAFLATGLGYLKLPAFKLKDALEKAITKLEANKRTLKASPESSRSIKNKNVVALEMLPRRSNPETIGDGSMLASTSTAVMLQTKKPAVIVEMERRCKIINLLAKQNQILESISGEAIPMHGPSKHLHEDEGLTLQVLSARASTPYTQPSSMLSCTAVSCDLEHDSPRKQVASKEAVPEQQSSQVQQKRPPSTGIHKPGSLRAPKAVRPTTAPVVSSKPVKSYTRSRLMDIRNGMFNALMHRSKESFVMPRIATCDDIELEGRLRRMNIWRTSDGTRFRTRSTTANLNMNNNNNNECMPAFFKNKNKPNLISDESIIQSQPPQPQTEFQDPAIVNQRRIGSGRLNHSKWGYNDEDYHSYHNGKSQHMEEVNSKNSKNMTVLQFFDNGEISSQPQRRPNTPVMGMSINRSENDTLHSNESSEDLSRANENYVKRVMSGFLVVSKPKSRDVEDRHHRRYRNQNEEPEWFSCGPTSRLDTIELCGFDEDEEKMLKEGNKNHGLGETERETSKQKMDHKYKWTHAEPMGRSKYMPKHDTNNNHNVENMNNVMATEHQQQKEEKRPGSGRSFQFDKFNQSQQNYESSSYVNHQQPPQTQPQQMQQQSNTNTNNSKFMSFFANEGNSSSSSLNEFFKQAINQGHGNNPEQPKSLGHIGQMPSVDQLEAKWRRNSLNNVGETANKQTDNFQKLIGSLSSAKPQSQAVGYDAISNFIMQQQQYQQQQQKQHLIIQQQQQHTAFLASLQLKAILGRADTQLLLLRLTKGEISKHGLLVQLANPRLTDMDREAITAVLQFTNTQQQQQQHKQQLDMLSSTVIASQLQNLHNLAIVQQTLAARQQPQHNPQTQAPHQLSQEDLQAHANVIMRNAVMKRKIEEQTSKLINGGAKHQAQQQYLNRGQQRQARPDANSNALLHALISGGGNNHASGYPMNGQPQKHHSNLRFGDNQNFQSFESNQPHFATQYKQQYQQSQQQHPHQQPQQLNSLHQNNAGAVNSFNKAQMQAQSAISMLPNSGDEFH
B2: Protein cup (Drosophila melanogaster (Fruit fly)), Q9VMA3 (parent)
chain: B1 partner
partner: B1 chain

Variants of B1 are the subject of one assay. The following applies: with cup_drome cup, Q9VMA3.
Consider E106A, for which the “effect of a mutation on the interaction” value is given as “disrupting interaction”.

A further assay covers variants of B2. The following applies: with if4e_drome eIF4E1, P48598.
L364A;L368A: the “effect of a mutation on the interaction” value was “disrupting interaction”.
The same measure, in the same setting: the value for Y327A was “disrupting interaction”.

A further assay covers variants of B2. The following applies: with if4e_drome eIF4E1, P48598. This is another data set of the same source.
Regarding Y327A;L364A;L368A, the “effect of a mutation on the interaction” value is recorded as “disrupting interaction”.
On the same count and under the same terms, the value for Y327A was “decreasing interaction”.

The values above are taken from IntAct's records for PubMed 14685270.
